One may read the IC50 as the concentration that inhibits the measured activity by half. A low value points to greater potency. As usually defined, the EC50 is the concentration giving half of the maximal effect. A low value points to an effect from little substance. One may read the EC50 (read off the curve) as the concentration needed to bring the measured effect to its halfway point. A higher EC50 (read off the curve) goes with a less potent agent.

Experimental findings from patent US20220340657A1 (L AND L BIO CO LTD NINGBO CHINA, published 2022) are described below.

Test [1] deals with T1, bio-LAG3-mFc (human, UniProt P18627 23-450, biotin-labelled).
T1 construct: also called hLAG-3
T1 sequence (looked up): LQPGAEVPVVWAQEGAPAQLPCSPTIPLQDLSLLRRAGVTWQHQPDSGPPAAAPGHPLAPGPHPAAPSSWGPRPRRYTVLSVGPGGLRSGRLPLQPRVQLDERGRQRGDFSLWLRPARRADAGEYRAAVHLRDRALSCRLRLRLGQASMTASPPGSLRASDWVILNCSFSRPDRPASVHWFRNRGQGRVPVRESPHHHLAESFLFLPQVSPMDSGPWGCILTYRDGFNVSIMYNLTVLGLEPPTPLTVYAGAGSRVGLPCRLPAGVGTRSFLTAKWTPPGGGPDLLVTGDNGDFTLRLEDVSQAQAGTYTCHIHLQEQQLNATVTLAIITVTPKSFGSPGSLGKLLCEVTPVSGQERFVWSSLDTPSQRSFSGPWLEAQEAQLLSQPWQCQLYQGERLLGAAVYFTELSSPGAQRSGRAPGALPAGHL
Description: blocking of LAG3 binding to Daudi cells. As for the experimental part: The Daudi cell line (ATCC, CCL-213) was expanded and seeded into 96-well microplate at a density of 2×10⁵ cells/well, and then centrifuged at 1600 rpm for 10 min; thereafter the cells were fixed with 100 μl/well of a fixative solution for immunostaining (Shanghai Beyotime Biotechnology Co., Ltd., Cat. No.: P0098) for half an hour at room temperature. After washing with PBS (BasalMedia Biology, Cat. No.: B320) once, 5% milk was added with 230 μl per well, and the microplate was incubated for 2 hours at 37° C. for blocking, then was washed three times with PBST. […] The microplate was then incubated for 1 hour at 37° C. and washed 5 times with PBST. 50 μl/well of 1:1000 diluted streptavidin-HRP secondary antibody (GenScript, Cat. No.: M00091) was added to the microplate and incubated for 1 hour at 37° C. After washing the microplate 5 times with PBST, 50 μl/well TMB (Surmodic, Cat. No.: TTMB-1000-01) was added to the microplate for color development, and 50 μl/well 1M H₂SO₄ was added to stop the reaction. The microplate was then read by a microplate reader (MuitiskanGo Thermo, model 511919200), and the data were analyzed using GraphPad prism 5.

Test [2] concerns the target T2, human LAG-3-his (human, UniProt P18627 23-422).
T2 construct: range 23-422; also called hLAG-3-his; hLAG-3
T2 sequence: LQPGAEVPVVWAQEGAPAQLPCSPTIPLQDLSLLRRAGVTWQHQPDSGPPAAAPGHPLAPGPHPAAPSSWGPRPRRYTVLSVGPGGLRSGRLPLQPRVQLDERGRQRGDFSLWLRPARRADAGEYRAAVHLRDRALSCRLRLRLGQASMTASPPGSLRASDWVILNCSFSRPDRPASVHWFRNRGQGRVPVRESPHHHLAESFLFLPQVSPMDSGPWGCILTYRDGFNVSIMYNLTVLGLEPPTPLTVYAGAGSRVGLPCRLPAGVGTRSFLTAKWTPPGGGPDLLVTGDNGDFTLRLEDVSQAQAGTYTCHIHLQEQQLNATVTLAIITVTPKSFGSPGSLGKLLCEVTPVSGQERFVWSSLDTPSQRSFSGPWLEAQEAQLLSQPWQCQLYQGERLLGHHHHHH
Kind of test: ELISA on human LAG3, sample stored at -80 C for 60 days. Background: An ELISA detects its analyte on a solid surface through an enzyme-linked reagent.

Test [3] addresses T3, human PD-1 (hFc/his tag) (human, UniProt Q15116 21-167).
T3 construct: range 21-167; not shown: hFc or his tag
Kind of test: ELISA on human PD-1.

Test [4] has as its target T2, human LAG-3-his. Description: ELISA on human LAG-3.
Test [5] deals with T3, human PD-1 (hFc/his tag). Kind of test: ELISA on human PD-1, sample kept at 37 C for 5 days.
The next test concerns the target T4, Bio-LAG-his (UniProt P18627 23-450, biotin-labeled).
T4 construct: Detection reagent of the double-sandwich ELISA; also called biotin-labeled LAG-3-his (ACROBiosystems); not shown: his tag of the bought product
T4 sequence (looked up): T1 sequence (looked up)
Kind of test: double-sandwich ELISA: plate coated with PD-1, bispecific titrated, detected with Bio-LAG-his. As for the experimental part: Finally, 50 μl/well of 1M H₂SO₄ was added to stop the reaction.

In test [6] the target is T2, human LAG-3-his. Description: ELISA on human LAG3, sample kept at 37 C for 10 days.
Test [7] deals with T2, human LAG-3-his. Description: ELISA on human LAG3, sample stored at -80 C for 60 days; sample stored at -80 C for 60 days (reference value in brackets).
The target in test [8] is T3, human PD-1 (hFc/his tag). Description: ELISA on coated human PD-1, OD450 (Example 13) [panel b].
Test [9] deals with T3, human PD-1 (hFc/his tag). Kind of test: blocking of PD-1 binding to PD-L1.
Test [10] addresses T3, human PD-1 (hFc/his tag). Kind of test: ELISA on human PD-1, sample stored at -80 C for 60 days.
Test [11] deals with T2, human LAG-3-his. Kind of test: ELISA on coated human LAG-3, OD450 (Example 3, Example 13) [panel a].
In test [12] the target is T3, human PD-1 (hFc/his tag). Description: ELISA on human PD-1, sample kept at 37 C for 10 days.
In test [13] the target is T2, human LAG-3-his. Kind of test: ELISA on human LAG3, sample kept at 37 C for 5 days.
For test [14], the target named is T2, human LAG-3-his. Kind of test: ELISA on coated human LAG-3-his, anti-human HRP, OD450 (Example 3) [panel a]. On the procedure: (§1) After discarding the liquid, a blocking solution of 5% skimmed milk (Bright skimmed milk powder) diluted with PBS was added at 230 μl per well, followed by incubating at 37° C. for 3 hours or 4° C. overnight (16-18 hours) for blocking. Subsequently, the blocking solution was discarded, and the micropiate was washed 5 times with PBST buffer (pH 7.4 PBS containing 0.05% tweeen-20). Then 50 μl/well of the supernatant (containing the antibody to be tested) or a starting concentration of 10 μg/ml of the antibody to be tested, which was diluted 5 times in gradient, was added, followed by incubating the mixture for 1 hour at 37° C. […] After washing the microplate 5 times with PBST, 50 μl/well TIMB chromogenic substrate (KPL, Cat. No.: 52-00-03) was added, and then incubated for […] at room temperature. Finally, 50 μl/well of 1 M H₂SO₄ was added to stop the reaction. The absorbance value at 450 nm was read by […] GO microplate reader (ThermoFisher, Cat. No.: 51119200). The clones with high affinity were selected according to the OD value or the EC₅₀ value was calculated (for antibodies with known concentrations).

For test [15], the target named is T2, human LAG-3-his. Description: ELISA on hLAG-3. On the procedure: as §1
The target of test [16] is T2, human LAG-3-his. Description: ELISA on hLAG-3. As for the experimental part:
as §1
This is another data set of the same source.

Test [17] deals with T1, bio-LAG3-mFc. Kind of test: blocking ELISA, LAG-3 on Daudi cells.
Test [18] has as its target T1, bio-LAG3-mFc. Kind of test: blocking ELISA, LAG-3 on Daudi cells. This is another data set of the same source.
The target in test [19] is T1, bio-LAG3-mFc. Kind of test: blocking ELISA on fixed Daudi cells: antibody titrated against bio-LAG3-mFc binding to Daudi cells (MHC II), streptavidin-HRP, OD450 (Example 4) [panel b].

T3 sequence (Q15116 21-167, form in doubt): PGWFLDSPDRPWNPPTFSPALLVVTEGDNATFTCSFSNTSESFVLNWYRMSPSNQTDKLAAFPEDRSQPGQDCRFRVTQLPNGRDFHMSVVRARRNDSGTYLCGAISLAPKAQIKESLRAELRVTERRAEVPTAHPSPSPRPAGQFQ

B1: bispecific antibody (SBody) LB2371 (bispecific antibody, human IgG4 S228P, kappa)
light: EIVLTQSPATLSLSPGERATLSCRASKGVSTSGYSYLHWYQQKPGQAPRLLIYLASYLESGVPARFSGSGSGTDFTLTISSLEPEDFAVYYCQHSRDLPLTFGGGTKVEIKRTVAAPSVFIFPPSDEQLKSGTASVVCLLNNFYPREAKVQWKVDNALQSGNSQESVTEQDSKDSTYSLSSTLTLSKADYEKHKVYACEVTHQGLSSPVTKSFNRGEC
heavy: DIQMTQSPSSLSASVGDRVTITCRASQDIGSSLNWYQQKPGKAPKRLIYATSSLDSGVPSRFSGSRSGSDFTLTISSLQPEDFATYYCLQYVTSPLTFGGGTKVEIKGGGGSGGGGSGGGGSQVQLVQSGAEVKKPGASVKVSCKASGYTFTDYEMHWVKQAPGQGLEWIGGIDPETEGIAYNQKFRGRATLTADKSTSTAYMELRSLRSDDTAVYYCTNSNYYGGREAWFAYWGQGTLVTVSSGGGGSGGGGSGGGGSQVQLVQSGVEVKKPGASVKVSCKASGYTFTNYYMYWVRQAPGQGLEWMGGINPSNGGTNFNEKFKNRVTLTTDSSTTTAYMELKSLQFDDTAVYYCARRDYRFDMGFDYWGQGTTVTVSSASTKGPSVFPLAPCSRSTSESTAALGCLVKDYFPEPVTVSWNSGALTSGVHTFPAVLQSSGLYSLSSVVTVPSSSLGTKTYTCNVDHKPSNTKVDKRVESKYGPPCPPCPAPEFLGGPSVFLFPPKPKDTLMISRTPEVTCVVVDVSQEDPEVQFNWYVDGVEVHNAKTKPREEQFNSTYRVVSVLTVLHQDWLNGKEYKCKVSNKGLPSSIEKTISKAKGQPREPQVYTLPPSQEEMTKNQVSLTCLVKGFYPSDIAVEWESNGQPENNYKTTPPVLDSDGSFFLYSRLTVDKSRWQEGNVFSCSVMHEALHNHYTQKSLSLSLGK
notes: Ab2317VL-(G4S)3-Ab2317VH-(G4S)3-PemVH-Hc (hIgG4)
On to B1, for which the IC50 turned out to be 77.5 nM with bio-LAG3-mFc [1] and 0.268 nM with human PD-1 (hFc/his tag) [9]. Besides, the concentration for a half-maximal effect (EC50) in the test with human LAG-3-his [2] was determined as 0.298 nM; in the test with human PD-1 (hFc/his tag) [3], 0.128 nM; with human LAG-3-his [4] it was 0.179 nM; with human PD-1 (hFc/his tag) [5], 0.293 nM; with Bio-LAG-his, 1.09 nM; in the test with human LAG-3-his [6], 0.392 nM. Also, the EC50 with human LAG-3-his [7] turned out to be 0.298 nM; with human PD-1 (hFc/his tag) [10] it was 0.227 nM; in the test with human PD-1 (hFc/his tag) [12], 0.324 nM; with human LAG-3-his [13], 0.251 nM. The “EC50 (read off the curve)” value with human PD-1 (hFc/his tag) [8] is about 0.1 nM; with human LAG-3-his [11], about 0.2 nM.

B2: chimeric antibody mab23c (antibody, human IgG4 S228P, kappa, V domains shown)
VH: QVQLQQSGAELVRPGASVTLSCKASGYTFTDYEMHWVKQTPVHGLEWIGGIDPETEGIAYNQKFRGKAILTADKSSITAYMELRSLTSEDSAVYYCTNSNYYGGREAWFAYWGQGTLVTVSG
VL: DIQMIQSPSSLSASLGERVSLTCRASQDIGSSLNWLQQEPDGTIKRLIYATSSLDSGVPKRFSGSRSGSDYSLTISSLESEDFVDYYCLQYVTSPLTFGAGTKLELKR
notes: hIgG4
With B2, the “EC50 (read off the curve)” value with human LAG-3-his [14] is about 0.4 nM. In addition, the EC50 with human LAG-3-his [15] came out at 0.166 nM; with human LAG-3-his [16], 0.41 nM. Further, the IC50 came out at 2.3 nM with bio-LAG3-mFc [17] and 1.55 nM with bio-LAG3-mFc [18]. Further, in the test with bio-LAG3-mFc [17], the “fold better IC50 than Ref” value was about 4 fold. Besides, the “IC50 (read off the curve)” value with bio-LAG3-mFc [19] was about 2 nM.
